Measured values from patent US20170056473A1 (published 2017).

What was measured:
Assay in all cases: cytokine release
[1] = molecular target: T1, EBV LMP1; LMP1*92 peptide on HLA-A*02:01 (human)
T1 peptide: LLLIALWNL

[2] = molecular target: T2, EBV LMP1; LMP1*125 peptide on HLA-A*02:01 (human)
T2 peptide: YLLEMLWRL

[3] = molecular target: T3, EBV LMP1; LMP1*32 peptide on HLA-A*02:01 (human)
T3 peptide: LLLALLFWL

[4] = molecular target: T4, EBV LMP1; LMP1*173 peptide on HLA-A*02:01 (human)
T4 peptide: WLLLFLAIL

[5] = molecular target: T5, EBV LMP1; LMP1*167 peptide on HLA-A*02:01 (human)
T5 peptide: LLVDLLWLL

[6] = molecular target: T6, EBV LMP1; printed as LMP1*125 (the same label as …) peptide on HLA-A*02:01 (human)
T6 peptide: YLQQNWWTL

B1: LMP1*166 S4-12 TCR (TCR, V domains shown)
Valpha: GEQVEQRPPHLSVREGDSAVIICTYTDPNSYYFFWYKQEPGAGLQLLMKVFSSTEINEGQGFTVLLNKKDKQLSLNLTAAHPGDSAVYFCAVSGTGGYKVVFGSGTRLLVSP
Vbeta: NSKVIQTPRYLVKGQGQKAKMRCIPEKGHPVVFWYQQNKNNEFKFLINFQNQEVLQQIDMTEKRFSAECPSNSPCSLEIQSSEAGDSALYLCASNQLGSSYEQYFGPGTRLTVL
B1: no recognition [1]; no recognition [2]; no recognition [3]. B1: no recognition [4]; recognises [5]; no recognition [6].
